Assays:
2F5 antibody [1] = assay: ELISA on coated 2F5; Fc variant 10 ug/ml
2F5 antibody [2] = assay: ELISA on coated 2F5; Fc variant 0.00457247 ug/ml
2F5 antibody [3] = assay: ELISA on coated 2F5; Fc variant 0.01371742 ug/ml
2F5 antibody [4] = assay: ELISA on coated 2F5; Fc variant 0.04115226 ug/ml
2F5 antibody [5] = assay: ELISA on coated 2F5; Fc variant 0.12345679 ug/ml
2F5 antibody [6] = assay: ELISA on coated 2F5; Fc variant 0.37037037 ug/ml
2F5 antibody [7] = assay: ELISA on coated 2F5; Fc variant 1.11111111 ug/ml
2F5 antibody [8] = assay: ELISA on coated 2F5; Fc variant 3.33333333 ug/ml

Substance | absorbance (2F5 antibody [1]) | absorbance (2F5 antibody [2]) | absorbance (2F5 antibody [3]) | absorbance (2F5 antibody [4]) | absorbance (2F5 antibody [5]) | absorbance (2F5 antibody [6]) | absorbance (2F5 antibody [7]) | absorbance (2F5 antibody [8])
Fc_ELDKWA_DE (from UniProt P0DOX5 227-449) | 1.25 | 0.0177 | 0.0283 | 0.038 | 0.0673 | 0.185 | 0.495 | 0.846
Fc_ELDKWA_BC (from UniProt P0DOX5 227-449) | 0.619 | 0.0133 | 0.0107 | 0.0197 | 0.0213 | 0.047 | 0.091 | 0.232
Fc_ELDKWA_FG (from UniProt P0DOX5 227-449) | 1.4 | 0.012 | 0.0215 | 0.0365 | 0.108 | 0.297 | 0.706 | 1.32
